Measured values as given in patent US20070197430A1, “Conjugates And Therapeutic Uses Thereof” (priority 2004, published 2007).
Values belong to the molecule of their own block, whether it stands above or below them. Bridge positions count the residues as written; N and C are the ends. Peptide text beside a SMILES is read from it.

How the values were obtained:
Bcl-w ΔC29 = molecular target: T1, Bcl-w ΔC29 (Homo sapiens, UniProt Q92843); assay: Alphascreen GST competition assay with biotinylated Bim BH3-26 peptide; type: binding; details: for decrease in binding affinity: relative to linear 16-mer; for binding affinity for Bcl-w ΔC29 compared to the linear 16-mer, in words: Examples 8 and 9
T1 sequence (Q92843 1-164 limits assumed): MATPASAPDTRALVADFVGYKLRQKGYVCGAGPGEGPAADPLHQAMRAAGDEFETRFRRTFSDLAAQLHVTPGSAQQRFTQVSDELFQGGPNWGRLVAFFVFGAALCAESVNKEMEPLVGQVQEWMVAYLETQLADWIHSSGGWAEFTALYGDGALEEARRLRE

[1] = test system: pre-B tumor cells from E-mu myc transgenic mice; assay: Cell viability by propidium iodide exclusion, flow cytometry; type: cell-based; details: Mus musculus, 24 h, read-out: % viable cells at 24 hours
Description: After 24 hours incubation at 37° C. in 5% CO2, the cells were washed with PBS and 50 μL of 100 μg/mL solution of propidium iodide was added to each well. The cells were analyzed by flow cytometry (BD Facscan) and the viable cells denoted as the percentage of cells excluding propidium iodide.

[2] = molecular target: GST tagged Bcl w delta C29 protein (UniProt Q92843); assay: competition assay; competitor: biotinylated BIM-BH3 peptide
[3] = molecular target: 6-His tagged Bcl w delta C10 protein (UniProt Q92843); assay: competition assay; competitor: biotinylated Bim-BH3 peptide
Bcl-2 ΔC22 = Bcl-2 ΔC22 (Homo sapiens, UniProt P10415); assay: as above
[4] = molecular target: GST tagged Bcl w delta C29 protein (UniProt Q92843); assay: as above
[5] = molecular target: GST tagged Bcl w delta C29 protein (UniProt Q92843); assay: competition assay; compared with the linear 16-mer
[6] = molecular target: GST tagged Bcl w delta C29 protein (UniProt Q92843); assay: competition assay; competitor: biotinylated Bim BH3 peptide
Mcl-1 ΔC23 [7] = molecular target: Mcl-1 ΔC23 (UniProt Q07820); assay: AlphaScreen GST detection; competitor: biotinylated BakBH3 peptide; second of two values
Bcl-xL ΔC25 [8] = molecular target: T2, Bcl-xL ΔC25 (Homo sapiens, UniProt Q07817); assay: AlphaScreen GST detection; competitor: biotinylated BimBH3 peptide
Mcl-1 ΔC23 [9] = molecular target: Mcl-1 ΔC23 (UniProt Q07820); assay: SPR, Biacore S51, direct binding
Mcl-1 ΔC23 [10] = molecular target: Mcl-1 ΔC23 (UniProt Q07820); assay: AlphaScreen GST detection; competitor: biotinylated BakBH3 peptide
Bcl-xL ΔC25 [11] = molecular target: T2, Bcl-xL ΔC25; assay: AlphaScreen GST detection; competitor: biotinylated BimBH3 peptide; second of two values

decrease in binding affinity (Bcl-w ΔC29): 1,000 fold
Molecule: CC[C@H](C)[C@H](NC(C)=O)C(=O)N[C@@H](Cc1c[nH]c2ccccc12)C(=O)N[C@H](C(=O)N[C@@H](C)C(=O)N[C@@H](CCC(N)=O)C(=O)N[C@@H](CCC(=O)O)C(=O)N[C@@H](CC(C)C)C(=O)N[C@@H](CCCNC(=N)N)C(=O)N[C@@H](CCCNC(=N)N)C(=O)N[C@H](C(=O)NCC(=O)N[C@@H](CC(=O)O)C(=O)N[C@@H](CCC(=O)O)C(=O)N[C@@H](C)C(=O)N[C@@H](CC(N)=O)C(=O)N[C@@H](C)C(N)=O)[C@@H](C)CC)[C@@H](C)CC [Peptide L] (Ac-IWIAQELRRIGDEANA-NH2)

IC50 [3]: 40 nM | IC50 (Bcl-2 ΔC22): 6900 nM | IC50 [4]: 160 nM
B1: Peptide D: Ac-IAQ-E-LRRIGD-E-F-NH2 with a -NHCH2C(═O)NHCH2CH2NH- linker (peptide)
peptide: IAQELRRIGDEF
HELM: PEPTIDE1{[ac].I.A.Q.E.L.R.R.I.G.D.E.F.[am]}|CHEM1{[O=C(CN[*:1])NCCN[*:2]]}$PEPTIDE1,CHEM1,5:R3-1:R1|PEPTIDE1,CHEM1,12:R3-1:R2$$$V2.0
SMILES: CC[C@H](C)[C@H](NC(C)=O)C(=O)N[C@@H](C)C(=O)N[C@@H](CCC(N)=O)C(=O)N[C@H]1CCC(=O)NCC(=O)NCCNC(=O)CC[C@@H](C(=O)N[C@@H](Cc2ccccc2)C(N)=O)NC(=O)[C@H](CC(=O)O)NC(=O)CNC(=O)[C@H]([C@@H](C)CC)NC(=O)[C@H](CCCNC(=N)N)NC(=O)[C@H](CCCNC(=N)N)NC(=O)[C@H](CC(C)C)NC1=O

fold decrease in binding affinity against the linear 16-mer [5]: 1000 fold | IC50 [6]: 3500 nM
Molecule: Ac-IWIAQELRRIGDEANA-NH2 [Peptide L (linear) Ac-…-NH2]

fold decrease in binding affinity against the linear 16-mer [5]: 1000 fold | IC50 [6]: 3700 nM
Molecule: Ac-IWIAQEARRIGDEFNA-NH2 [Peptide J (linear) Ac-…-NH2]

IC50 (Mcl-1 ΔC23 [7]): 660 nM | IC50 (Bcl-xL ΔC25 [8]): 960 nM | Kd (Mcl-1 ΔC23 [9]): 920 nM | IC50 (Mcl-1 ΔC23 [10]): 650 nM | IC50 (Bcl-xL ΔC25 [11]): 890 nM
Molecule: Ac-IAQQLRRIGDQF-NH2 [L2 Ac-…-NH2]

IC50 [2]: 2.5 nM | IC50 [6]: 2.5 nM
Molecule: Ac-IWIAQELRRIGDEFNA-NH2 [linear 16-mer Ac-…-NH2]

fold decrease in affinity against the linear 16-mer [5]: 4 to 5 fold | IC50 [6]: 12 nM
Molecule: Ac-IWIAQELRRIGDEFAN-NH2 [Peptide R (linear) Ac-…-NH2]

IC50 [2]: 0.5 nM
Molecule: Ac-IWIAQELRRIGDEFNA-NH2 (linker 6-13 via 1,5‑diaminopentane) [Peptide E: constrained 16-mer with a pentane linker tethering the two glutamate residues]

fold decrease in binding affinity against the linear 16-mer [5]: 100 fold | IC50 [6]: 360 nM
Molecule: Ac-IWAAQELRRIGDEFNA-NH2 [Peptide I (linear) Ac-…-NH2]

IC50 [3]: 230 nM | IC50 (Bcl-2 ΔC22): 2600 nM | IC50 [4]: 120 nM
Molecule: Ac-IAQELRRIGDEF-NH2 (linker 4-11 via 1,6‑diaminohexane) [Peptide C: Ac-IAQ-E-LRRIGD-E-F-NH2 with a 1,6-diaminohexane linker]

The remaining lines, values behind:

Molecule: CC[C@H](C)[C@H](NC(C)=O)C(=O)N[C@@H](CCCNC(=N)N)C(=O)N[C@H](C(=O)N[C@@H](C)C(=O)N[C@@H](CCC(N)=O)C(=O)N[C@@H](CCC(=O)O)C(=O)N[C@@H](CC(C)C)C(=O)N[C@@H](CCCNC(=N)N)C(=O)N[C@@H](CCCNC(=N)N)C(=O)N[C@H](C(=O)NCC(=O)N[C@@H](CC(=O)O)C(=O)N[C@@H](CCC(=O)O)C(=O)N[C@@H](Cc1ccccc1)C(=O)N[C@@H](CC(N)=O)C(=O)N[C@@H](C)C(N)=O)[C@@H](C)CC)[C@@H](C)CC [Q] (Ac-IRIAQELRRIGDEFNA-NH2)
binding affinity for Bcl-w ΔC29 compared to the linear 16-mer, in words (Bcl-w ΔC29): drop in binding

Molecule: CC[C@H](C)[C@H](NC(C)=O)C(=O)N[C@@H](Cc1c[nH]c2ccccc12)C(=O)N[C@H](C(=O)N[C@@H](C)C(=O)N[C@@H](CCC(N)=O)C(=O)N[C@@H](CCC(=O)O)C(=O)N[C@@H](CC(C)C)C(=O)N[C@@H](CCCNC(=N)N)C(=O)N[C@@H](CCCNC(=N)N)C(=O)N[C@H](C(=O)NCC(=O)N[C@@H](CC(=O)O)C(=O)N[C@@H](CCC(=O)O)C(=O)N[C@@H](Cc1ccccc1)C(=O)N[C@@H](CC(N)=O)C(=O)N[C@@H](CC(N)=O)C(N)=O)[C@@H](C)CC)[C@@H](C)CC [Peptide U] (Ac-IWIAQELRRIGDEFNN-NH2)
decrease in binding affinity (Bcl-w ΔC29): two-fold

Molecule: CC[C@H](C)[C@H](NC(C)=O)C(=O)N[C@@H](Cc1c[nH]c2ccccc12)C(=O)N[C@H](C(=O)N[C@@H](C)C(=O)N[C@@H](CCC(N)=O)C(=O)N[C@@H](CCC(=O)O)C(=O)N[C@@H](CC(C)C)C(=O)N[C@@H](CCCNC(=N)N)C(=O)N[C@@H](CCCNC(=N)N)C(=O)N[C@H](C(=O)NCC(=O)N[C@@H](CC(=O)O)C(=O)N[C@@H](CCC(=O)O)C(=O)N[C@@H](Cc1ccccc1)C(=O)N[C@@H](C)C(=O)N[C@@H](C)C(N)=O)[C@@H](C)CC)[C@@H](C)CC [Peptide S] (Ac-IWIAQELRRIGDEFAA-NH2)
binding affinity for Bcl-w ΔC29 compared to the linear 16-mer, in words (Bcl-w ΔC29): only slight, if any, loss of binding affinity

Molecule: CC[C@H](C)[C@H](NC(=O)[C@H](CCCNC(=N)N)NC(=O)[C@H](CCCNC(=N)N)NC(=O)[C@H](CC(C)C)NC(=O)[C@H](CCC(=O)O)NC(=O)[C@H](CCC(N)=O)NC(=O)[C@H](C)NC(=O)[C@@H](NC(=O)[C@H](Cc1c[nH]c2ccccc12)NC(=O)[C@H](C)NC(C)=O)[C@@H](C)CC)C(=O)NCC(=O)N[C@@H](CC(=O)O)C(=O)N[C@@H](CCC(=O)O)C(=O)N[C@@H](Cc1ccccc1)C(=O)N[C@@H](CC(N)=O)C(=O)N[C@@H](C)C(N)=O [O, Ac-AWIAQELRRJGDEFNA-NH2] (Ac-AWIAQELRRIGDEFNA-NH2)
binding affinity for Bcl-w ΔC29 compared to the linear 16-mer, in words (Bcl-w ΔC29): drop in binding

Molecule: CC[C@H](C)[C@H](NC(C)=O)C(=O)N[C@@H](C)C(=O)N[C@H](C(=O)N[C@@H](C)C(=O)N[C@@H](CCC(N)=O)C(=O)N[C@@H](CCC(=O)O)C(=O)N[C@@H](CC(C)C)C(=O)N[C@@H](CCCNC(=N)N)C(=O)N[C@@H](CCCNC(=N)N)C(=O)N[C@H](C(=O)NCC(=O)N[C@@H](CC(=O)O)C(=O)N[C@@H](CCC(=O)O)C(=O)N[C@@H](Cc1ccccc1)C(=O)N[C@@H](CC(N)=O)C(=O)N[C@@H](C)C(N)=O)[C@@H](C)CC)[C@@H](C)CC [P] (Ac-IAIAQELRRIGDEFNA-NH2)
binding affinity for Bcl-w ΔC29 compared to the linear 16-mer, in words (Bcl-w ΔC29): drop in binding

Molecule: COc1cc([C@@H]2c3cc4c(cc3[C@@H](O[C@@H]3O[C@@H]5CO[C@@H](C)O[C@H]5[C@H](O)[C@H]3O)[C@H]3COC(=O)[C@H]23)OCO4)cc(OC)c1O [Etoposide]
viability at 0.015 µM ([1]; concentration 0.015 μM): 80% | viability at 0.0312 µM ([1]; concentration 0.0312 μM): 50% | viability at 0.0625 µM ([1]; concentration 0.0625 μM): 21% | viability at 0.125 µM ([1]; concentration 0.125 μM): 0% | viability at 0.25 µM ([1]; concentration 0.25 μM): 0% | viability at 0.5 µM ([1]; concentration 0.5 μM): 0% | viability at 1 µM ([1]; concentration 1.0 μM): 0%

Molecule: Ac-IWIAQELRRIGDEFNA-NH2 (linker 6-13 via ‑NHCH2C(═O)(CH2)2NH2‑)
IC50 [2]: 0.3 nM

Molecule: Ac-IWAAQEARRAGDEANA-NH2 [Peptide M (linear) Ac-…-NH2]
fold decrease in binding affinity against the linear 16-mer [5]: 25000 fold | IC50 [6]: 64000 nM

Molecule: Ac-IWIAQELRRAGDEFNA-NH2 [Peptide K (linear) Ac-…-NH2]
fold decrease in binding affinity against the linear 16-mer [5]: 3 fold | IC50 [6]: 7.3 nM

Molecule: Ac-EIAQELREIGDEF-NH2 (linker 1-8 via 1,5‑diaminopentane) [Peptide A of Example 7: Ac-E-IAQELR-E-IGDEF-NH2 with a 1,5-diaminopentane linker (first position)]
IC50 [3]: 2600 nM | IC50 (Bcl-2 ΔC22): 26000 nM | IC50 [4]: 1800 nM

Molecule: Ac-IWIAQELRRIGDEFNN-NH2 [Peptide U (linear) Ac-…-NH2]
fold loss of binding affinity against the linear 16-mer [5]: 2 fold | IC50 [6]: 5.8 nM
